# Patent publication US20210061908A1 (IOMX THERAPEUTICS, published 2021)
# Residue numbers refer to the chain shown, from its start.
# T1: extracellular domain (ECD) of murine IGSF11, biotinylated (mouse, UniProt P0C673 23-240, biotinylated (site not stated))
# T1 construct: also called Mouse IGSF11; murine IGSF11 protein
# T1 sequence: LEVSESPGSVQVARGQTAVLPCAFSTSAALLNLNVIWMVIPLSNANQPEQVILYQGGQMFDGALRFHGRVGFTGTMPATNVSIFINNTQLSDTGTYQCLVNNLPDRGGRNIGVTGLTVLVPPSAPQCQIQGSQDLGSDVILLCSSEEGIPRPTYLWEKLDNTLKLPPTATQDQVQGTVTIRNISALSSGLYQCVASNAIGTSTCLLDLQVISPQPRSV
# T2: extracellular domain (ECD) of human IGSF11 (VSIG3), biotinylated (human, UniProt Q5DX21 23-241, biotinylated (site not stated))
# T2 construct: also called human IGSF11 protein
# T2 sequence: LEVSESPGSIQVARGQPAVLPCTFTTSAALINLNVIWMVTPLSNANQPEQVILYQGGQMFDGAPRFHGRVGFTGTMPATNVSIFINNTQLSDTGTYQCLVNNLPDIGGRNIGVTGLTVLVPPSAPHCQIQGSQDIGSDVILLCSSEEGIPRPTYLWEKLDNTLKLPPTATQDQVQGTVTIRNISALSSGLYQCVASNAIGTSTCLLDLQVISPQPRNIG
# T3: extracellular domain (ECD) of human IGSF11 (VSIG3), HIS-tagged (human, UniProt Q5DX21 23-241, biotinylated in the ELISA of Example 4 (site not stated))
# T3 construct: also called HIS-IGSF11; IGSF11-HIS; not shown: HIS6 tag
# T3 sequence: T2 sequence
# B1: A-003 (scFv format) (scFv, V domains shown)
# VH: VQLVQSGAEVKKPGSSVKVSCKASGGTFSSYAISWVRQAPGQGLEWMGGIIPIFGTANYAQKFQGRVTITADESTSTAYMELSSLRSEDTAVYYCASPRIQLWAAGGFDYWGQGTLVTVSS
# VL: QSALTQPASVSGSPGQSITISCTGTSSDVGGYNLVSWYQQHPGKAPKLMIYDVSNRPSGVSNRFSGSKSGNTASLTISGLQAEDEADYYCSSFTTSTTLVFGGGTKLTVL
# notes: scFv
# B2: A-027 (scFv format) (scFv, V domains shown)
# VH: QVQLVQSGAEVKKPGSSVKVSCKASGGTFSSYAISWVRQAPGQGLEWMGGIIPIFGTANYAQKFQGRVTITADKSTSTAYMELSSLRSEDTAVYYCARARGSTWGYFDYWGQGTLVTVSS
# VL: EIVLTQSPASLSLSPGERVTLSCRASQSVSNYLAWYQQKPGQAPRLLIYDASNRATGIPARFSGSGSGTDFTLTISSLEPEDFAVYYCQQRDNWPLTFGGGTKVEIK
# notes: scFv
# B3: A-022 (scFv format) (scFv, V domains shown)
# VH: EVQLLESGPGLVKPSQTLSLTCTVSGGSISSGGYYWSWIRQHPGKGLEWIGYIYYSGSTYYNPSLKSRVTISVDTSKNQFSLKLSSVTAADTAVYYCARASRSTDYYFDYWGQGTLVTVSS
# VL: QPGLTQPPSMSYGLGQTATLTCTGNRNNIGDQGAAWLQQHQGHPPKLLSYRNNNGPSGISERLSASRSGNTASLTISGLQPEDEADYYCSAWDSSLRAWVFGGGTKLTVL
# notes: scFv
# B4: A-026 (scFv format) (scFv, V domains shown)
# VH: QVQLQESGPGLVKPSQTLSLTCTVSGGSISSGGYYWSWIRQHPGKGLEWIGYIYYSGSTYYNPSLKSRVTISVDTSKNQFSLKLSSVTAADTAVYYCASWSLGTSNHGWFDPWGQGTLVTVSS
# VL: QSVLTQPPSASGTPGQRVTISCSGSSSNIGSNTVNWYQQLPGTAPKLLISDNNNRPSGVPDRFSGSKSGTSASLAITGLQAEDEADYYCQSYDSNLSGWVFGGGTKLTVL
# notes: scFv
# B5: A-016 (scFv format) (scFv, V domains shown)
# VH: QVQLQESGAEVKKPGASVKVSCKASGYTFTGYYMHWVRQAPGQGLEWMGGIIPIFGTANYAQKFQGRVTITADESTSTAYMELSSLRSEDTAVYYCAGAGMELTRSGAYYYYGMDVWGQGTTVTVSS
# VL: QSALTQPASVSGSPGQSITISCTGTSSDIGGYTFVSWYQQHPGKAPKVMIHDVNNRPSGISNRFSGSKSGNTASLTISGLQAEDEADYYCSSVTSTNTYVFGTGTKVTVL
# notes: scFv
# B6: A-025 (scFv format) (scFv, V domains shown)
# VH: QVQLVQSGAEVKKPGSSVKVSCKASGGTFSSYAISWVRQAPGQGLEWMGGIIPIFGTANYAQKFQGRVTITADESTSTAYMELTSLRSEDTAVYYCARGGWLRQNWFDPWGQGTLVTVSS
# VL: SSELTQDPAVSVALGQTVRITCQGDSLRSYYASWYQQKPGQAPVLVIYGKNNRPSGIPDRFSGSSSGNTASLTITGAQAEDEADYYCNSRDSSGNHPRVFGGGTKLTVL
# notes: scFv
# B7: A-029 (scFv format) (scFv, V domains shown)
# VH: QVQLVQSGAEVKKPGSSVKVSCKASGGTFSSYAISWVRQAPGQGLEWMGGIIPIFGTANYAQKFQGRVTITADESTGTAYMELSSLRSEDTAVYYCARSYYYYYGMDVWGQGTTVTVSS
# VL: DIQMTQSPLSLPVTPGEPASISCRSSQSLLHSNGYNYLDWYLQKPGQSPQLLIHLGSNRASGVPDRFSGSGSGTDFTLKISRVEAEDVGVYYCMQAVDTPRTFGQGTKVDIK
# notes: scFv
# B8: A-017 (scFv format) (scFv, V domains shown)
# VH: QVQLVQSGAEVKKPGASVKVSCKASGYTFTGYYMHWVRQAPGQGLEWMGWINPNSGNTGYAQKFQGRVTMTRNTSISTAYMELSSLRSEDTAVYYCARGGQQQLVLDDYWGQGTLVTVSS
# VL: DIVLTQSPASLSASVGDRITITCQASQDIRHHLNWFQHKPGKAPKLLISDSSNLETGVPSRFSGSGSGTDFSFTISRLQPEDIATYYCQQYDSLPRTFGQGTKLEIK
# notes: scFv
# B9: A-019 (scFv format) (scFv, V domains shown)
# VH: B8 VH
# VL: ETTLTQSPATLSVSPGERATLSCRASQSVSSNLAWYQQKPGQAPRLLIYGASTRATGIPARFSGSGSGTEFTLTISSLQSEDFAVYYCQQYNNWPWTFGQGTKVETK
# notes: scFv
# B10: A-028 (scFv format) (scFv, V domains shown)
# VH: QVQLVQSGAEVKKPGSSVKVSCKASGGTFSSYAISWVRQAPGQGLEWMGGIIPIFGTANYAQKFQGRVTITADESTSTAYMELSSLRSEDTAVYYCARVGVEYQLLWYFDYWGQGTLVTVSS
# VL: DIQMTQSPSSLSASVGDRVTLTCRTSQTISNYLNWYQQKPGKAPKLLVYAASNLQSWVPSRFSGSGSGTDFTLTISSLQPEDFATYYCQQSYNASFGGGTKVEFK
# notes: scFv
# B11: A-024 (scFv format) (scFv, V domains shown)
# VH: QMQLVQSGAEVKKPGSSVKVSCKASGGTFSSYAISWVRQAPGQGLEWMGWISAYNGNTNYAQKLQGRVTMTTDTSTSTAYMELRSLRSDDTAVYYCASLGSYGYTGAFDIWGQGTMATVSS
# VL: QSALTQPASVSGSPGQSITISCTGTSSDVGGYNYVSWYQQHPGKAPKLMIYEVSNRPSGVSNRFSGSKSGNTASLTISGLQAEDEADYYCSSYTSSSTLVVFGGGTKLTVL
# B12: A-021 (scFv format) (scFv, V domains shown)
# VH: QVQLVQSGAEVKKPGASVKVSCKASGYTFTSYGISWVRQAPGQGLEWMGWISAYNGNTNYAQKLQGRVTMTTDTSTSTAYMELRSLRSDDTAVYYCARVPAWSGQFDYWGQGTLVTVSS
# VL: QSALTQPASVSGSPGQSITISCTGTSSDVGGYNYVSWYQQHPGKAPKLMIYEVTNRPSGVSDRFSGSKSANTASLTISELQAEDEAVYYCNSYTSGPTYVLFGGGTQLTVL
# notes: scFv
# B13: A-023 (scFv format) (scFv, V domains shown)
# VH: QVQLVQSGAEVKKPGSSVKVSCKASGGTFSSYAISWVRQAPGQGLEWMGGIIPIFGTANYAQKFQGRVTITADESTSTAYMELSSLRSEDTAVYYCARPKYSSGWFYYYGMDVWGQGTTVTVSS
# VL: QSVLTQPPSVSAAPGQKVTISCSGSSSNIGNNYVSWYQQLPGTAPKLLIYDNNKRPSGIPDRFSGSKSGTSATLGITGLQTGDEADYYCGTWDSSLSVVFGGGTKLTVL
# notes: scFv
# B14: A-003 (human IgG1 format) (antibody, V domains shown)
# VH: B1 VH
# VL: B1 VL
# notes: human IgG1 format
# B15: A-001 (human IgG1 format) (antibody, V domains shown)
# VH: EVQLVESGGGLVKPGGSLRLSCAASGFTFSSYSMNWVRQAPGKGLEWVSSISSSSSYIYYADSVKGRFTISRDNAKNSLYLQMNSLRAEDTAVYYCVRSIIVQALGITSVFDIWGQGTMVTVSS
# VL: AIRLTQSPSSLSASVGDRVTISCRASQIISNHLNWYQQKPGKAPKLLIYAASRLQTGVPSRFSGSGSETDYTLTISSLQPEDFATYYCQQSYSNPRTFGHGTKVEIK
# notes: human IgG1 format
# B16: A-033 (human IgG1 format) (antibody, V domains shown)
# VH: QVQLVQSGAEVKKPGASVKVSCKASGYTFTSYGISWVRQAPGQGLEWMGWISAYNGNTNYAQKLQGRVTMTTDTSTSTAYMELRSLRSDDTAVYYCARDHSIVGATTFDYWGQGTLVTVSS
# VL: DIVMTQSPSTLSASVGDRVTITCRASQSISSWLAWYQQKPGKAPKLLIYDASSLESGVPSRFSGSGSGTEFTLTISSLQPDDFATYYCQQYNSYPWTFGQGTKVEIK
# notes: human IgG1 format
# B17: A-025 (human IgG1 format) (antibody, V domains shown)
# VH: B6 VH
# VL: B6 VL
# notes: human IgG1 format
# B18: A-010 (human IgG1 format) (antibody, V domains shown)
# VH: B12 VH
# VL: B11 VL with T25S, H41Y, E52D, S54R, N55S, S91T, S97N, V101I, L108V
# notes: human IgG1 format
# B19: A-023 (human IgG1 format) (antibody, V domains shown)
# VH: B13 VH
# VL: B13 VL
# notes: human IgG1 format
# Biological target: T1, extracellular domain (ECD) of murine …
# Test: ELISA, scFv; RFU grade (*** >1.0, ** 0.5-1.0, * 0.1-0.5)
row,"relative fluorescent units (RFU), ELISA [rfu]",Binder
1,0.1 to 0.5,B1
2,0.1 to 0.5,B2
3,> 1,B3
4,> 1,B4
5,0.5 to 1,B5
6,0.1 to 0.5,B6
7,0.1 to 0.5,B7
8,0.1 to 0.5,B8
9,0.5 to 1,B9
10,0.1 to 0.5,B10
11,0.1 to 0.5,B11
12,0.1 to 0.5,B12
13,0.1 to 0.5,B13

# Biological target: T2, extracellular domain (ECD) of human …
# Test: as above
row,"relative fluorescent units (RFU), ELISA [rfu]",Binder
1,0.1 to 0.5,B1
2,0.1 to 0.5,B2
3,0.5 to 1,B3
4,> 1,B4
5,> 1,B5
6,0.1 to 0.5,B6
7,0.1 to 0.5,B7
8,0.5 to 1,B8
9,> 1,B9
10,0.1 to 0.5,B10
11,0.5 to 1,B11
12,0.5 to 1,B12
13,0.5 to 1,B13

# Biological target: T3, extracellular domain (ECD) of human …
# Test: ELISA, coated IGSF11-HIS, IgG1 format; EC50 grade (* >1 nM, ** 0.05-1 nM, *** 0.02-0.05 nM, **** <0.02 nM)
row,EC50 [nM],Binder
1,0.05 to 1,B14
2,< 0.02,B15
3,0.02 to 0.05,B16
4,0.05 to 1,B17
5,< 0.02,B18
6,0.05 to 1,B19
